In the assay the target is SPPV14ΔC31 (sheeppoxvirus SPPV14 residues 1-145, 31 residue C-terminal deletion) (sheeppoxvirus). Briefly: ITC.
One may read the Kd as the constant that tells how readily two partners part at equilibrium. In the case of Hrk BH3 motif peptide (human, 26-mer), the Kd was 0.039 µM.
With Bad BH3 motif peptide (human) the figure was 5.2 µM.
With Bax BH3 motif peptide (human, 28-mer) the figure was 0.026 µM; with VPGRLAEVCAVLLRLGDELEMIRPSV [Bok BH3 motif peptide (human, residues 59-84)], 7.6 µM.
